Entries after “also recorded” stand apart in the source; their conditions may differ.
B1: CER21: Tim4 binding and transmembrane domains, TLR8 signaling domain; SEQ ID NO:88 (protein)
chain: MSKGLLLLWLVTELWWLYLTPAASEDTIIGFLGQPVTLPCHYLSWSQSRNSMCWGKGSCPNSKCNAELLRTDGTRIISRKSTKYTLLGKVQFGEVSLTISNTNRGDSGVYCCRIEVPGWFNDVKKNVRLELRRATTTKKPTTTTRPTTTPYVTTTTPELLPTTVMTTSVLPTTTPPQTLATTAFSTAVTTCPSTTPGSFSQETTKGSAFTTESETLPASNHSQRSMMTISTDIAVLRPTGSNPGILPSTSQLTTQKTTLTTSESLQKTTKSHQINSRQTILIIACCVGFVLMVLLFLAFLHHLFYWDVWFIYNVCLAKVKGYRSLSTSQTFYDAYISYDTKDASVTDWVINELRYHLEESRDKNVLLCLEERDWDPGLAIIDNLMQSINQSKKTVFVLTKKYAKSWNFKTAFYLALQRLMDENMDVIIFILLEPVLQHSQYLRLRQRICKSSILQWPDNPKAEGLFWQTLRNVVLTENDSRYNNMYVDSIKQY
modifications: CER21 chimeric engulfment receptor
B2: CER123: Tim4 binding and transmembrane domains, TLR2 primary and TRAF6 secondary signaling domains; SEQ ID NO:150 (protein)
chain: MSKGLLLLWLVTELWWLYLTPAASEDTIIGFLGQPVTLPCHYLSWSQSRNSMCWGKGSCPNSKCNAELLRTDGTRIISRKSTKYTLLGKVQFGEVSLTISNTNRGDSGVYCCRIEVPGWFNDVKKNVRLELRRATTTKKPTTTTRPTTTPYVTTTTPELLPTTVMTTSVLPTTTPPQTLATTAFSTAVTTCPSTTPGSFSQETTKGSAFTTESETLPASNHSQRSMMTISTDIAVLRPTGSNPGILPSTSQLTTQKTTLTTSESLQKTTKSHQINSRQTILIIACCVGFVLMVLLFLAFLHRFHGLWYMKMMWAWLQAKRKPRKAPSRNICYDAFVSYSERDAYWVENLMVQELENFNPPFKLCLHKRDFIPGKWIIDNIIDSIEKSHKTVFVLSENFVKSEWCKYELDFSHFRLFDENNDAAILILLEPIEKKAIPQRFCKLRKIMNTKTYLEWPMDEAQREGFWVNLRAAIKSMSLLNCENSCGSSQSESDCCVAMASSCSAVTKDDSVGGTASTGNLSSSFMEEIQGYDVEFDPPLESKYECPICLMALREAVQTPCGHRFCKACIIKSIRDAGHKCPVDNEILLENQLFPDNFAKREILSLMVKCPNEGCLHKMELRHLEDHQAHCEFALMDCPQCQRPFQKFHINIHILKDCPRRQVSCDNCAASMAFEDKEIHDQNCPLANVICEYCNTILIREQMPNHYDLDCPTAPIPCTFSTFGCHEKMQRNHLARHLQENTQSHMRMLA
modifications: CER123 protein
B3: CER126: Tim4 binding and transmembrane domains, TLR2 primary and TRAF2 secondary signaling domains; SEQ ID NO:174 (protein)
chain: MSKGLLLLWLVTELWWLYLTPAASEDTIIGFLGQPVTLPCHYLSWSQSRNSMCWGKGSCPNSKCNAELLRTDGTRIISRKSTKYTLLGKVQFGEVSLTISNTNRGDSGVYCCRIEVPGWFNDVKKNVRLELRRATTTKKPTTTTRPTTTPYVTTTTPELLPTTVMTTSVLPTTTPPQTLATTAFSTAVTTCPSTTPGSFSQETTKGSAFTTESETLPASNHSQRSMMTISTDIAVLRPTGSNPGILPSTSQLTTQKTTLTTSESLQKTTKSHQINSRQTILIIACCVGFVLMVLLFLAFLHRFHGLWYMKMMWAWLQAKRKPRKAPSRNICYDAFVSYSERDAYWVENLMVQELENFNPPFKLCLHKRDFIPGKWIIDNIIDSIEKSHKTVFVLSENFVKSEWCKYELDFSHFRLFDENNDAAILILLEPIEKKAIPQRFCKLRKIMNTKTYLEWPMDEAQREGFWVNLRAAIKSMAAASVTPPGSLELLQPGFSKTLLGTKLEAKYLCSACRNVLRRPFQAQCGHRYCSFCLASILSSGPQNCAACVHEGIYEEGISILESSSAFPDNAARREVESLPAVCPSDGCTWKGTLKEYESCHEGRCPLMLTECPACKGLVRLGEKERHLEHECPERSLSCRHCRAPCCGADVKAHHEVCPKFPLTCDGCGKKKIPREKFQDHVKTCGKCRVPCRFHAIGCLETVEGEKQQEHEVQWLREHLAMLLSSVLEAKPLLGDQSHAGSELLQRCESLEKKTATFENIVCVLNREVERVAMTAEAC
modifications: CER126 protein

Columns and labels:
Format in all cases: cell-based
human primary B cells [1] = test: Gene expression profile (activation state) of CER21+ B cells; conditions: CD40, CD40L, RANTES, CXCL10, CXCL11, LTα, TNFa
Description: To evaluate the activation state of CER21+ human primary B cells, gene expression profiles were examined from transduced B cell populations.

human primary B cells [2] = test: Proliferation of CER+ B cells co-cultured with paclitaxel treated Jurkat cells (CELLTRACE Violet dilution); conditions: 5 days co-culture with paclitaxel (30 μM) treated Jurkat cells, no exogenous cytokines
Method: The proliferation capacity of CER19+ and CER21+ human primary B cells was evaluated by co-culture with paclitaxel (30 μM) treated Jurkat lymphoma cells. CER-transduced B cells were labeled with CELLTRACE Violet and then co-cultured with paclitaxel treated Jurkat cells a target cell to effector cell ratio of 5:1 at 37° C. in the absence of exogenous cytokines for 5 days. Proliferation of CER19+ or CER21+B cells was assessed by flow cytometry by measuring dilution of CELLTRACE Violet (FIG. 23). Both CER19+ and CER21+ B cells increased approximately 10-fold after 5 days of co-culture in the absence of exogenous cytokines.

[3] = test system: pHrodo-red labeled, dexamethasone treated thymocytes; test: Luminal degradation of engulfed thymocytes in CER-transduced Ba/F3 cells (time-lapse imaging); conditions: FACS purified after overnight co-culture
Method: Luminal degradation in CER-transduced cells was also evaluated following engulfment. Ba/F3 cells transduced with CER21 or CER116 were co-cultured with pHrodo-red labeled, dexamethasone treated thymocytes overnight and subsequently purified by FACS. Target cell destruction was visualized by time-lapse imaging and quantified over time (FIG. 85F). […] CER116-harboring Ba/F3 cells (top) catabolize target cells, allowing cells to return to homeostasis and resume immune responsiveness. The addition of a TRAF6 signaling domain to the CER construct promotes rapid destruction of engulfed material.

[4] = test system: HCC159 lung adenocarcinoma cells; test: MTT viability of HCC159 cells co-cultured with CER T cells and Osimeritinib; conditions: for growth/viability of HCC159 cells (MTT): Osimeritinib 0.1, 1, 5 nM, E:T 1:1, 2:1, 5:1, 48 hours
Method: HCC159 lung adenocarcinoma cells harboring an EGFR mutation were co-cultured with CER123- or CER126-expressing CD4+ T cells with increasing concentrations of Osimeritinib (0.1 nM, 1 nM, or 5 nM). Mock transduced (vector only) T cells were used as control. After 48 hours of co-culture at effector: target cell ratios at 1:1, 2:1 or 5:1 in the presence of drug, T cells were washed away, and the number of viable HCC159 cells was quantified using a calorimetric MTT assay. Cell viability experiments were performed in triplicates and presented as % of control with (FIG. 48A).

[5] = test system: A549 cells introduced with an ELM4-ALK translocation; test: Interferon Gamma secretion, A549 ALK+ co-culture; conditions: Crizotinib (3700 nM) or Alectinib (3700 nM), 18 hours, E:T 2:1 and 5:1
Method: After 18 hours of co-culture, bulk supernatants were evaluated for Interferon Gamma secretion (FIGS. 66A-B). Assays were performed using purified, tEGFR^+ (transduction marker), CER-expressing T cells 7 days after activation using CD3 & CD28 microbeads at effector: target ratios of (2:1 & 5:1). Control “Mock” T cells were transduced with vector alone.

[6] = test system: H1975 lung adenocarcinoma cells; test: MTT viability of H1975 cells co-cultured with CER T cells and Osimeritinib; conditions: for growth/viability of H1975 cells (MTT): Osimeritinib 250, 500, 1000 nM, CD4+ T cells, E:T 1:1, 2:1, 5:1, 48 hours
Description: H1975 lung adenocarcinoma cells harboring an EGFR mutation were co-cultured with CER123- or CER126-modified or Mock-transduced (vector only) CD4+ T cells with increasing concentrations of Osimeritinib. CER123 has a polypeptide sequence as set forth in SEQ ID NO:150 and comprises a Tim4 binding domain, Tim4 transmembrane domain, and an engulfment signaling domain comprising a primary engulfment signaling domain comprising a TLR2 signaling domain and a secondary engulfment signaling domain comprising a TRAF6 signaling domain. CER126 has a polypeptide sequence as set forth in SEQ ID NO:174 and comprises a Tim4 binding domain, Tim4 transmembrane domain, and an engulfment signaling domain comprising a primary engulfment signaling domain comprising a TLR2 signaling domain and a secondary engulfment signaling domain comprising a TRAF2 signaling domain. CD4 T cells were transduced with a lentiviral vector comprising CER123 or CER126 nucleic acid and truncated EGFR (transduction marker) nucleic acid. Assays were performed using CER modified T cells purified by FACS using an EGFR specific antibody 7 days after activation using CD3 & CD28 microbeads. CER modified T cells and H1975 cells were co-cultured at effector:target cell ratio (E:T) of 1:1, 2:1, or 5:1. After 48 hours of co-culture in the presence of Osimeritinib (0, 250 nM, 500 nM, or 1000 nM), T cells were washed away, and the number of viable H1975 cells were quantified using a calorimetric MTT assay. Cell viability experiments were performed in triplicate and presented as % of control (FIG. 45A).

ALK+A549 cells = test: LDH cytotoxicity assay, A549 ALK+ cells, 18 hours co-culture; conditions: for cell killing of A549 ALK+ cells (LDH): Crizotinib or Alectinib 0, 2500, 3700 nM, E:T 2:1 or 5:1, 18 hours
Method: An ELM4-ALK translocation was introduced into A549 cells. […] Assays were performed with purified tEGFR^+ (transduction marker), CER-expressing T cells 7 days after activation using CD3 & CD28 microbeads at effector: target cell ratios of 2:1 or 5:1. Mock T cells were transduced with vector alone and used as control. After 18 hours of co-culture, bulk supernatants were evaluated using a LDH cytoxicity assay indicating cell killing (FIGS. 65A-B).

| Molecule | activation state (B cell mRNA levels compared to transduced control B cells) (human primary B cells [1]) | increase of CER+ B cells (human primary B cells [2]) | luminal content degradation over time [3] | bright field images of HCC159 co-culture ([4]; 1 nM Osimeritinib, vs control T cells) | growth/viability of HCC159 cells (MTT) [4] | Interferon Gamma secretion [5] | growth/viability of H1975 cells (MTT) [6] | cell killing of A549 ALK+ cells (LDH) (ALK+A549 cells) | bright field images of H1975 co-culture ([6]; Osimeritinib 500 nM, vs control T cells (vector alone)) | micrograph images of A549 co-culture (ALK+A549 cells; Crizotinib 3700 nM) |
| --- | --- | --- | --- | --- | --- | --- | --- | --- | --- | --- |
| B1 | promoted B cell activation molecules and survival factors | approximately 10 fold | broken down over-time | – | – | – | – | – | – | – |
| B2 | – | – | – | loss of HCC159 cells | dose-dependent target cell killing responses; also recorded: synergistically suppressed | dose-dependent inducible cytokine secretion | synergistically suppressed | dose-dependent inducible cytokine secretion and cell killing responses | – | – |
| B3 | – | – | – | – | dose-dependent target cell killing responses; also recorded: synergistically suppressed | dose-dependent inducible cytokine secretion | synergistically suppressed | dose-dependent inducible cytokine secretion and cell killing responses | loss of H1975 cells | near complete loss of Crizotinib-treated A549 cells |

— patent US11708423B2, “Chimeric engulfment receptor molecules and methods of use” (CERO THERAPEUTICS, INC., priority 2017, dated 2023)
